Laboratory results published in patent US9187558B2, “Anti-epithelial cell adhesion molecule (EpCAM) antibodies and methods of use thereof” (ACADEMIA SINICA, priority 2012, dated 2015).

Legend:
[1] = tested on: tumor invasiveness; assay: Invasion assay (Matrigel transwell); type: cell-based
Protocol: Colony Formation and Invasion Assay. For colony formation assay, cells were seeded at a density of 5×10^3 in 6-well plate for 10 day, followed by fixing and staining with crystal violet. For invasion assay, cells (1×10^5) were seeded at a transwell insert (8-μm polycarbonate Nucleopore filters, Corning) coated with Matrigel (BD Biosciences) at room temperature for 30 min to form a genuine reconstituted basement membrane. After 24 h incubation, cells were fixed with methanol for 10 min, and non-invaded cells were then removed by cotton swap. The invaded cells were observed by staining with DAPI, imaged under an inverted fluorescent microscopy (Zeiss), and quantified by ImageJ software.

[2] = tested on: c-MYC, OCT4, NANOG, and SOX2 promoters; assay: Luciferase reporter assay of reprogramming gene promoters; type: cell-based, human
Protocol: Luciferase Reporter Assay. Cells were seeded in a plate and co-transfected with pcDNA3.1, EpCAM, EpICD, or EpEX-expressing vectors (400 ng) and pGL4-Oct4-Luc, Nanog-Luc, Sox2-Luc, or c-Myc-Luc-expressing plasmid (100 ng) by PolyJET for 24 h. Promoter activities were measured by the Dul-Glo Luciferase kit (Promega), and the transfected efficiency was normalized by co-transfection with pRL-TK (20 ng) as an internal control.

[3] = tested on: EpICD cleavage; assay: EpICD cleavage and cellular localization (confocal immunofluorescence, Western blot); type: cell-based, human; details: for EpICD cleavage: 24 h, TAPI 40 μM
Protocol: Immunofluorescent Staining. Cells cultured on cover slips were fixed in paraformaldehyde, washed, and then blocked with 1% bovine serum albumin in PBS for 10 min. Cells were incubated at room temperature with primary antibodies in 1% bovine serum albumin. After 1 h incubation, cells were washed and incubated with fluorescein isothiocyanate (FITC) goat anti-mouse antibody (Jackson ImmunoResearch Laboratories), Alexafluor488 goat-anti-mouse or Alexaflour568 goat-anti-rabbit (INVITROGEN®) antibodies. 4′,6-Diamidino-2-phenylindole (DAPI) was added for nuclear counter staining.
(§1) Immunoprecipitation and Western Blot Analysis. […] The supernatants were immunoprecipitated using anti-EpCAM antibodies.

[4] = tested on: release of EpEX; assay: Release of EpEX into HCT116 culture supernatants (immunoprecipitation and Western blot); type: cell-based, human; details: HCT116 cells, 24 h; DAPT 50 μM, TAPI 40 μM
Description: as §1

[5] = tested on: vimentin, snail, and slug; assay: EMT gene expression; type: cell-based, human
Protocol: as §1
RNA Extraction and Quantitative Real-Time RT-PCR. Total RNAs were prepared from the cell lines using ULTRASPEC RNA isolation reagent (Biotecx Laboratories, Houston, Tex.). cDNAs were reverse-transcribed using Super-Script III RNaseH-reverse transcriptase (INVITROGEN®, Carlsbad, Calif.) according to the manufacturer's instructions. Quantitative RT-PCR was performed by using the LightCycler480 System (Roche Applied Science). The gene expression level of each sample was normalized to the expression level of GAPDH in the same sample. The reactions were performed in triplicate, and S.D. values were calculated.

[6] = tested on: HCT116 sphere cells; assay: Spheroid (tumorsphere formation) assay; type: cell-based, human
Protocol: Spheroid Assay. For spheroid formation, culture cells were disassociated into single cells. 5×10^3 cells were seeded at an ultra-low 6-well plate (CORNING™ for 6 days and were maintained in DMEM/F12 supplemented with B27 (INVITROGEN®), EGF (10 ng/ml) and FGF (25 ng/ml) twice a week. The spheres were counted under a microscope. For serum-induced differentiation assay, tumorspheres were cultured in matrigel-coated plate supplemented with DMEM containing 10% FBS for 7 days to induce the differentiation process.

[7] = tested on: SAS-derived oral cancer xenografts; assay: SAS-derived oral cancer xenograft antitumor efficacy; details: n=6
Protocol: Animal Model for Analysis of Antitumor Efficacy. […] Treatments were administered through tail vein injection, 10 mg/kg twice a week, for 4 consecutive weeks, with a total dose of 80 mg/kg. […] The tumor volumes were calculated as length×(width)^2×0.52.

[8] = tested on: EpCAM mutants (Y95, D96 on EGF-II domain); details: mutations in positions Y95 or D96 on EGF-II domain; 1 μg/ml antibody
Protocol: HEK293 cells at 80%-90% confluency in 6-well plates were transfected with plasmids of various EpCAMs. After two days transfection, the cells were washed with PBS. Cells were extracted with RIPA buffer, supplemented with a protease inhibitor mixture tablet and spun at 20,000 g for 30 min at 4° C. […] The signals were developed using enhanced chemiluminescence reagents (ECL) (Thermo Scientific, Rockford, Ill.).

[9] = tested on: HCT116 and tumorsphere (HCT116 sphere) cells; assay: Hypodiploid DNA content by flow cytometry with PI staining; type: cell-based, human; details: tumor and tumorsphere cells
Protocol: (§2) Apoptosis Assays. Cells were separately seeded and treated with 0-20 μg/ml mAbs for 6 h. Apoptotic cells were detected by Annexin V-FITC and PI and analyzed by a flow cytometer (BD imnmmunocytometry systems, San Jose, Calif.). Early apoptosis was measured with the Annexin V-FITC Apoptosis Detection kit II (BD Pharmingen, La Jolla, Calif.). Apoptotic nuclei were detected with propidium iodide (PI) staining.

[10] = tested on: SAS and HCT116 cell lines; assay: Apoptosis assay, Annexin V-FITC and PI flow cytometry; type: cell-based, human; details: 0-20 μg/ml, 6 h
Protocol: as §2

[11] = tested on: CCD-1112Sk normal cells; assay: Cellular ELISA binding to normal foreskin cells; design: species or system human
[12] = tested on: human cancer cells (SAS, NPC039, HCT116, SKOV3); assay: Cellular ELISA, Western blot and FACS binding to cancer cell lines; details: Western blot, FACS
Protocol: ELISA. 96-well plates (Corning Costar, St. Louis, Mo.) were seeded with SAS (oral carcinoma), NPC, HCT116 (colon cancer), SKOV3 (ovarian cancer cell line), NNM and HUVEC cells. The plates fixed with 2% paraformaldehyde and blocked with 1% bovine serum albumin. OCAb9-1 was added to the plates and incubated for 1 h. The plates were then washed with PBS containing 0.1% (w/v) TWEEN® 20 (PBST0.1) and incubated with horseradish peroxidase-conjugated anti-mouse IgG (Jackson ImmunoResearch Laboratories) for another 1 h. After washing, the plates were incubated with substrate solution o-phenylenediamine dihydrochloride (SIGMA™). The reaction was stopped by adding 3 N HCl, and the plates were read using a microplate reader at 490 nm.
Flow Cytometry. SAS, HCT116 and NNM were dissociated with 0.25% trypsin-EDTA (1 mM) (INVITROGEN®) for 1-3 min. Cells were washed with fluorescence-activated cell sorting buffer (PBS containing 1% fetal calf serum) and then incubated for 1 h at 4° C. in fluorescence-activated cell sorting buffer with the OCAb9-1 and EpAb mAbs at dilutions that ranged from […]. Phycoerythrin-conjugated goat anti-mouse IgG was used as a secondary antibody (dilution 1:250; Jackson ImmunoResearch Laboratories (West Grove, Pa.) for 30 min at 4° C. After the final wash, the cells were re-suspended with 1% FBS in PBS and analyzed by flow cytometry (BD, San Jose, Calif.). […]

[13] = HCT116 cells, sEpEX 2.5, 5 μg/ml

## C[C@H](NC(=O)Cc1cc(F)cc(F)c1)C(=O)N[C@H](C(=O)OC(C)(C)C)c1ccccc1 [DAPT]
[1]
  tumor invasiveness: decreasing
[2]
  EpCAM-induced transcriptional activities of c-MYC, OCT4, NANOG, and SOX2: blocked
[3]; 293T/EpCAM-v5 cells
  expression of soluble EpICD-v5 (10 kDa): reduced
[3]; HCT116 cells, DAPT 50 μM
  EpICD cleavage: inhibited EpICD cleavage
  soluble EpICD signals in cytoplasm and nucleus: blocked
[4]
  release of EpEX: blocked the release of EpEX
[5]
  expressions of vimentin, snail, and slug: suppressed
[6]
  sphere-forming capacity: decreasing

## TAPI
[3]; HCT116 cells, DAPT 50 μM
  EpICD cleavage: inhibited EpICD cleavage
[4]
  release of EpEX: blocked the release of EpEX

B1: EpAb2-6: one of five newly generated anti-EpCAM mAbs; VH SEQ ID NO: 2, VL SEQ ID NO: 3 (antibody, listed as Homo sapiens, V domains shown)
VH: EVQLVESGPELKKPGETVKISCKASGYTFTDYSMHWVKQAPGKGLKWMGWINTETGEPTFADDFKGRFAFSLETSARTTYLQINNLKNEDTATYFCARTAVYWGQGTSLTVSS
VL: DIQLTQSPSSLSASLGERVSLTCRASQEISVSLSWLQQKPDGTIKRLIYATSTLDSGVPKRFSGSRSGSDYSLTISSLESEDFADYYCLQYASYPWTFGGGTKLEIKRADAAPTVS
[7]; 10 mg/kg i.v. twice a week
  tumor size of control PBS group relative to EpAb2-6 group: 1.5 fold
[7]; SAS xenograft
  median overall survival of tumor-bearing mice: 71 days
[8]
  relative binding activity to EpCAM mutants vs wild type: markedly reduction
[9]
  hypodiploid DNA content: induced hypodiploid DNA content
[10]
  induction of cancer cell apoptosis: could induce cancer cell apoptosis
[6]; 6 days treatment
  tumorsphere formation: suppressed tumorsphere formation effectively

B2: hEpAb2-6: CDRs of EpAb2-6 grafted onto human IgG1 backbone; VH SEQ ID NO: 24, VL SEQ ID NO: 25 (antibody, V domains shown)
VH: VKLQESGPELKKPGETVKISCKASGYTFTDYSMHWVKQAPGKGLKWMGWINTETGEPTYADDFKGRFAFSLETSASTAYLQINNLKNEDTATYFCARTAVYWGQGTTVTVSS
VL: DIQMTQSPSSLSASLGERVSLTCRASQEISVSLSWLQQEPDGTIKRLIYATSTLDSGVPKRFSGSRSGSDYSLTISSLESEDFVDYYCLQYASYPWTFGGGTKLEIKRADAAPTVS
modifications: human IgG1 backbone; Humanized VH domain; Humanized VL domain
[11]
  recognition of CCD-1112Sk normal cells: not CCD-1112Sk normal cells
[10]
  induction of cancer cell apoptosis: induced cancer cell apoptosis
[12]
  recognition of (binding to) human cancer cells: recognized both SAS and HCT116 cancer cells

B3: sEpEX: soluble extracellular domain of EpCAM (protein, UniProt P16422 24-265, looked up)
extracellular domain: QEECVCENYKLAVNCFVNNNRQCQCTSVGAQNTVICSKLAAKCLVMKAEMNGSKLGRRAKPEGALQNNDGLYDPDCDESGLFKAKQCNGTSMCWCVNTAGVRRTDKDTEITCSERVRTYWIIIELKHKAREKPYDSKSLRTALQKEITTRYQLDPKFITSILYENNVITIDLVQNSSQKTQNDVDIADVAYYFEKDVKGESLFHSKKMDLTVNGEQLDLDPGQTLIYYVDEKAPEFSMQGLK
modifications: extracellular domain
notes: soluble extracellular domain of EpCAM
[2]; HCT116 cells, sEpEX 2 μg/ml
  reporter activities of c-MYC, OCT4, NANOG, and SOX2: induced reporter activities
[3]; [13]
  induction of EpICD cleavage: inductions
[5]; [13]
  induction of vimentin expression: inductions
